Data from article PMC2894021, “Transcriptional control by two leucine-responsive regulatory proteins in Halobacterium salinarum R1” (BMC Molecular Biology, 2010).

Key:
LrpA1 = LrpA1 (Halobacterium salinarum, UniProt B0R4X4); assay: analytical DNA-affinity chromatography with aspB3 promoter, SDS-PAGE densitometry; format: biochemical; conditions: 5 mM L-aspartate; 3 M KCl, 1 M NaCl, 5 mM MgCl2, 10 mM HEPES, pH 7.1; room temperature, 4 h; effector of DNA binding, indirect read-out
[1] = biological target: T1, LrpA1 (Halobacterium salinarum R1) (UniProt B0R4X4); assay: DNA-affinity chromatography (pull-down), SDS-PAGE densitometry; conditions: CFE buffer: 3 M KCl, 1 M NaCl, 5 mM MgCl2, 10 mM HEPES pH 7.1; room temperature, 4 h; 2 nmol LrpA1, 61 pmol biotinylated DNA; elution with 1% SDS
T1 sequence: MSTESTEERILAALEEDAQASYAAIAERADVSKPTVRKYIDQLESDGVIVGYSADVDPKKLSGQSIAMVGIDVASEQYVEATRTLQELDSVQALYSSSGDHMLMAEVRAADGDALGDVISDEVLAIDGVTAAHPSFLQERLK

[2] = test system: LrpA1 (Halobacterium salinarum R1); assay: as above; conditions: CFE buffer: 3 M KCl, 1 M NaCl, 5 mM MgCl2, 10 mM HEPES pH 7.1, room temperature, 4 h, 2 nmol LrpA1, 61 pmol biotinylated DNA
[3] = biological target: the molecule itself; assay: SEC; Superdex 200 3.2/3 column on a SMART device, 50 ul per min, CFE buffer (3 M KCl; 1 M NaCl; 10 mM HEPES, pH 7.1); LrpA1-His6 after renaturation; monomer to dimer

N[C@@H](CC(=O)O)C(=O)O [L-aspartate]
relative binding efficiency to aspB3-Pincl DNA (LrpA1): resulting in significantly enhanced binding of LrpA1 to the aspB3Pincl sequence

ACGACACCGGGTCGTTTTGATTGTCGGCTACGTGTCGCAGTGTTGGCGGTAGCGCCGCTCCAACGGTGGTTCCGTGGCGTTCCGCTGTCGGTTGACGATTCGGAAGATACCCTTTCACACGAACCCCCTATCCTGACGTGAGCACTGAATCGACAGAAGAGCGAATCCTCGCCGCGCTCGAAGAGGACGCGCAAGCGTCGTATGCGGCCATCGCGGAGCGTGCGGACGTCTCCA (double strand) [lrpA1-Pincl (mutated)]
binding signal (% of lrpA1-Pincl) [1]: 24

ACGACACCGGGTCGTTTTGATTGTCGGCTACGTGTCGCAGTGTTGGCGGTAGCGCCGCTCCAACGGTGGTTCCGTGGCGTTCCGCTGTCGGTTGACGATTCGGAAGATATTTTTTCACACGAACCAAATATCCTGACGTGAGCACTGAATCGACAGAAGAGCGAATCCTCGCCGCGCTCGAAGAGGACGCGCAAGCGTCGTATGCGGCCATCGCGGAGCGTGCGGACGTCTCCA (double strand) [lrpA1-Pincl]
binding signal (% band density) [1]: 100

ATCGCGCTTGAACGTCTGCATACGTCCGCTACGCACCAGGCGCGCAAAACTTCAGGGGGTTCGGGACCCGCGGGTTGTGCCGTGATAGCACACGCGTCCCGCAGGAACGATTATGAGGGATGGCCGCGATCCTGCTGGCATGCCTTCGGAGCGCGCGGCTGCGGTCACGCCGTTCGCCGCGATGGATGTCCTCGAACGCGCCGCCGAC (double strand) [aspB3-Pincl]
binding signal (% band density) [1]: 100

aspB3-Pincl
binding signal (% band density) ([2]; 5 mM L-arginine, text: binding not enhanced by arginine, elution with 1% SDS): 100
binding signal (% band density) ([2]; 5 mM L-aspartate, elution with 1% SDS): 100
binding signal (% of aspB3-Pincl + 5 mM Arg) ([2]; no amino acid (arginine experiment), elution with 1% SDS): 77
binding signal (% of aspB3-Pincl + 5 mM Asp) ([2]; no amino acid (aspartate experiment), elution with 1% SDS): 34

flgB1 control DNA
binding signal (% of aspB3-Pincl + 5 mM Arg) ([2]; 5 mM L-arginine, non-specific background, elution with 1% SDS): 30
binding signal (% of aspB3-Pincl + 5 mM Asp) ([2]; 5 mM L-aspartate, non-specific background, elution with 1% SDS): 7
binding signal (% of lrpA1-Pincl) ([2]; no amino acid, non-specific background, elution with 1% SDS): 37

lrpA1-Pincl
binding signal (% band density) ([2]; no amino acid, elution with 1% …): 100

B1: H. salinarum LrpA1 (OE2621R), His6-tagged (natural protein, Halobacterium salinarum R1, UniProt B0R4X4 1-142, looked up)
chain: MSTESTEERILAALEEDAQASYAAIAERADVSKPTVRKYIDQLESDGVIVGYSADVDPKKLSGQSIAMVGIDVASEQYVEATRTLQELDSVQALYSSSGDHMLMAEVRAADGDALGDVISDEVLAIDGVTAAHPSFLQERLK
notes: Leucine-responsive regulatory protein homologue LrpA1 of Halobacterium salinarum R1, locus OE2621R; theoretical size of the monomer 15.2 kDa; amplified by PCR and cloned NdeI/XhoI into pET26b; the cloning primers are in additional file 10; also called LrpA1-His6; transcription regulator LrpA1; source: E. coli BL21(DE3), pET26b; purified on Ni-NTA in 8 M urea, renatured by dialysis against high …
stoichiometry N [3]: 2
